The numbers were not newly measured in publication PMC4954776, which cites them from elsewhere.

A value given as a limit tells only on which side of the number the result lay.

For this data set, the target named is BRAF kinase domain 448-723 (Homo sapiens) (UniProt P15056). In words: sedimentation equilibrium.

Sequence of BRAF kinase domain 448-723 (P15056 448-723): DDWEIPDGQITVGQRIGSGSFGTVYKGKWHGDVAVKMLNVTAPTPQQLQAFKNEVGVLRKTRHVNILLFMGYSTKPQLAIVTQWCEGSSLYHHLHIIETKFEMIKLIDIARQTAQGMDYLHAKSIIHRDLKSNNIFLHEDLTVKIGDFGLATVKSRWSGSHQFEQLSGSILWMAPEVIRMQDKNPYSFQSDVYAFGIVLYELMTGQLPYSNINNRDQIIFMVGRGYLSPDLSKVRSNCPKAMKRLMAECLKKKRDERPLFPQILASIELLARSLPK

For orientation: Kd means the free concentration of one partner at which half of the binding sites on the other are occupied at equilibrium, for simple one-to-one binding. With “BRAF kinase domain 448-723 (from UniProt P15056)”, the Kd is less than 6.25 µM.
